These results are taken from paper PMC7864943, “Structural elements in the flexible tail of the co-chaperone p23 coordinate client binding and progression of the Hsp90 chaperone cycle” (Nature Communications, 2021).

The term Kd denotes a measure of binding affinity in units of concentration. A high value points to weaker binding.

Conditions in all cases: both partners purified
The target in assay [1] is T1, yeast Hsp90 (Hsp82), full length (yeast, UniProt P02829 1-709).
T1 construct: Hsp90 (Hsp82), yeast, full-length protein; Isotope-labelled (methyl-labelled, deuterated) in some NMR experiments; also called Hsp90 FL; Hsp90 dimer
Nature of the assay: ATPase inhibition assay; apparent Ki; ATP-regenerating system, 30 °C; 3 µM yeast Hsp90 (Hsp82) with rising concentrations of p23 or mutants; 40 mM Hepes, 150 mM KCl, 5 mM MgCl2, 1 mM DTT, pH 7.5; 2 mM ATP.

The target of assay [2] is T1, yeast Hsp90 (Hsp82), full length. Description: ITC; 20 µM Hsp90 in the cell, p23^WT (135 µM) or mutants (up to 360 µM) in the syringe; 2 mM AMP-PNP; 40 mM Hepes, 150 mM KCl, 5 mM MgCl2, 1 mM DTT, pH 7.5; 30 °C. Background: Isothermal titration calorimetry measures the heat released or taken up as one component is titrated into another.
The target in assay [3] is T2, human Hsp90β, full length (human, UniProt P08238 1-724).
T2 construct: also called Hsp90 FL (human); source: E. coli BL-21 DE3, purified (the methods speak of Hsp90 and p23 in general)
Description: NMR titration; 1H-15N HSQC of 15N-labeled p23 with unlabeled full-length Hsp90/AMP-PNP or GR-LBDm alone; peak intensity ratios; 25 mM Tris, 200 mM NaCl, 5 mM DTT, 0.5 mM dexamethasone, pH 7; 30 °C.

T1 sequence (P02829 whole entry): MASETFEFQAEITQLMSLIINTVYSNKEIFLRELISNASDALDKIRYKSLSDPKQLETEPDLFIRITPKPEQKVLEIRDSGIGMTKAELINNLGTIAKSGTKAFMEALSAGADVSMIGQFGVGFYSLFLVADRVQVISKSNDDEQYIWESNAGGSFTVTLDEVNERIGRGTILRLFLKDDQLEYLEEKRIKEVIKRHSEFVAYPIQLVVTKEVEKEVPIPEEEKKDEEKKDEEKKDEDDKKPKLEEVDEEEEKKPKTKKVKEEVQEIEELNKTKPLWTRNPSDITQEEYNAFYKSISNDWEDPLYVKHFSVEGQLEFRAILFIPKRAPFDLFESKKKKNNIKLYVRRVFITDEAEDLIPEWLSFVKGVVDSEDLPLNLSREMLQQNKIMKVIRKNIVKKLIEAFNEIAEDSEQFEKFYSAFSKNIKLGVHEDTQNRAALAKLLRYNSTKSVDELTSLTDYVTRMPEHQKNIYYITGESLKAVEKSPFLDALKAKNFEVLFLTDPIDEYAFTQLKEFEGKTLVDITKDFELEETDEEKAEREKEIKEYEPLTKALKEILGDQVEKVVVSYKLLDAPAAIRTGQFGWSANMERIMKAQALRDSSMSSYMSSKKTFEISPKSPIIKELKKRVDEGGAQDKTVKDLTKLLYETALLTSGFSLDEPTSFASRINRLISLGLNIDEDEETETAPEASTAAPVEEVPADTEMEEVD
T2 sequence (P08238 whole entry): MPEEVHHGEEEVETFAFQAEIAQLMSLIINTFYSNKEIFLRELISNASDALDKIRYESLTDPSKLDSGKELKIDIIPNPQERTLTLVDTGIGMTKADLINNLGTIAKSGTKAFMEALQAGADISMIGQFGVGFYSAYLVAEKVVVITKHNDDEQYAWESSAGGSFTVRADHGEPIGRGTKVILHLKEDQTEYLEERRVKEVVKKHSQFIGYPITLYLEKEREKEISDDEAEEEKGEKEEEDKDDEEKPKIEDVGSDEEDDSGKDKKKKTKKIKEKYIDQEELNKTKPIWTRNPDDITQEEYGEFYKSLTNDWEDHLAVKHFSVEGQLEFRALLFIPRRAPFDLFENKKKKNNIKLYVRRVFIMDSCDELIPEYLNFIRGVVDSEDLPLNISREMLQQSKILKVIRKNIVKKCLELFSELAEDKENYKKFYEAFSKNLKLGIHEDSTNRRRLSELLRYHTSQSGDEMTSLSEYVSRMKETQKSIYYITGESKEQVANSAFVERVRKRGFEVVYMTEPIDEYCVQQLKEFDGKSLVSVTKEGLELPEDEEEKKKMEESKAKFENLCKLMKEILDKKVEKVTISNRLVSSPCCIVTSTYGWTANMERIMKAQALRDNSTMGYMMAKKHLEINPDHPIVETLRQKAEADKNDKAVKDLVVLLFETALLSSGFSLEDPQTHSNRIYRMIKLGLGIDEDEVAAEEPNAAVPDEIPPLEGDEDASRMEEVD

B1: yeast p23^Δ91 (domain or fragment, UniProt P28707 1-125, looked up)
chain: MSDKVINPQVAWAQRSSTTDPERNYVLITVSIADCDAPELTIKPSYIELKAQSKPHVGDENVHHYQLHIDLYKEIIPEKTMHKVANGQHYFLKLYKKDLESEYWPRLTKEKVKYPYIKTDFDKWV
notes: p23/Sba1, yeast, C-terminal deletion mutant Δ91; source: E. coli BL-21 DE3, purified
As to B1, in assay [1], the Ki was 10.8 µM.

B2: yeast p23^W124A (natural protein, UniProt P28707 1-216, looked up)
chain: MSDKVINPQVAWAQRSSTTDPERNYVLITVSIADCDAPELTIKPSYIELKAQSKPHVGDENVHHYQLHIDLYKEIIPEKTMHKVANGQHYFLKLYKKDLESEYWPRLTKEKVKYPYIKTDFDKAVDEDEQDEVEAEGNDAAQGMDFSQMMGGAGGAGGAGGMDFSQMMGGAGGAGSPDMAQLQQLLAQSGGNLDMGDFKENDEEDEEEEIEPEVKA
notes: p23/Sba1, yeast, point mutant of the wild type (aa 1-216); source: E. coli BL-21 DE3, purified
Regarding B2, in assay [2], the affinity, expressed as Kd, was 1.3 µM. Besides, the Ki in assay [1] turned out to be 2.6 µM.

B3: human p23 (natural protein, UniProt Q15185 1-160, looked up)
chain: MQPASAKWYDRRDYVFIEFCVEDSKDVNVNFEKSKLTFSCLGGSDNFKHLNEIDLFHCIDPNDSKHKRTDRSILCCLRKGESGQSWPRLTKERAKLNWLSVDFNNWKDWEDDSDEDMSNFDRFSEMMNNMGGDEDVDLPEVDGADDDSQDSDDEKMPDLE
notes: p23, human; helical stretch at residues 117-127 of the tail; 15N-labelled; also called p23 (human); source: E. coli BL-21 DE3, purified (the methods speak of Hsp90 and p23 in general)
As for B3, the binding result in assay [3] is on record as “binds”.

B4: yeast p23^Δ88 (domain or fragment, UniProt P28707 1-128, looked up)
chain: MSDKVINPQVAWAQRSSTTDPERNYVLITVSIADCDAPELTIKPSYIELKAQSKPHVGDENVHHYQLHIDLYKEIIPEKTMHKVANGQHYFLKLYKKDLESEYWPRLTKEKVKYPYIKTDFDKWVDED
notes: p23/Sba1, yeast, C-terminal deletion mutant Δ88; source: E. coli BL-21 DE3, purified
In assay [2], B4 returned a Kd of 2.3 µM. Also, the Ki in assay [1] is 2.2 µM.
